Data on 20 sequences can be found in the DeepSol protein solubility set.

This series is described as follows: soluble on expression in E. coli; label from the status in PepcDB or PDB records.
Take “MIQFNQVSKSYEDGTKAVDSLHLEIKKGEFFVLIGPSGCGKTTTMKMINRLIETTEGSILIDGKDIQQYNINELRWDIGYVLQQIALFPHMTIAENIAVVPEMRKWSKEKIKARVDELLQMVGLDPDVYRNRMPDELSGGQKQRIGVVRALAANPKIVLMDEPFSALDPLSREQLQKDIVQLQKKIQKTIVFVTHDMQEALSLGDRICIMKEGKVVQLDTPEGIIHNPKNEFVEEFIGNRGRPWYEGKSIEDVLPLDESIRIEGEALSLHSSLQEALVRLRADEVVPVEEKGRYVGALTSRHIVNYIVEQMKERG”: the “soluble on expression in E. coli” value is on record as “not soluble”.

For the sequence “MIQFSINRTLFIHALNTTKRAISTKNAIPILSSIKIEVTSTGVTLTGSNGQISIENTIPVSNENAGLLITSPGAILLEASFFINIISSLPDISINVKEIEQHQVVLTSGKSEITLKGKDVDQYPRLQEVSTENPLILKTKLLKSIIAETAFAASLQESRPILTGVHIVLSNHKDFKAVATDSHRMSQRLITLDNTSADFMVVLPSKSLREFSAVFTDDIETVEVFFSPSQILFRSEHISFYTRLLEGNYPDTDRLLMTEFETEVVFNTQSLRHAMERAFLISNATQNGTVKLEITQNHISAHVNSPEVGKVNEDLDIVSQSGSDLTISFNPTYLIESLKAIKSETVKIHFLSPVRPFTLTPGDEEESFIQLITPVRTN”, the “soluble on expression in E. coli” value was “soluble”.

For the sequence “MIRAFLVVALASVAVFSAPIPEVPQNFDDIPAEYKGLIPAEVAEHLKAITAEEKAALKELAQNHKEYKTEEEFKAALKEKSPSLYEKAGKLEALLTAKFEKLDATAQALVKKIIAKGRELHQQYLAGDKPTLDSLKELAKGYIAEYKALSDDAKATITAEFPILTGFFQNEKIQAIVGQYVN”, the “soluble on expression in E. coli” value is “not soluble”.

“MIREAQRSELPAILELWLESTTWGHPFIKANYWRDCIPLVRDAYLANAQNWVWEEDGKLLGFVSIMEGRFLAAMFVAPKAVRRGIGKALMQYVQQRYPHLMLEVYQKNQPAIDFYRAQGFHIVDCAWQDETQLPTWIMSWPVVQTL”: the “soluble on expression in E. coli” value is on record as “not soluble”.

Turning to “MIRELVTTAAITGAAIGGAPVAGADPQRYDGDVPGMNYDASLGAPCSSWERFIFGRGPSGQAEACHFPPPNQFPPAETGYWVISYPLYGVQQVGAPCPKPQAAAQSPDGLPMLCLGARGWQPGWFTGAGFFPPEP”, the “soluble on expression in E. coli” value is on record as “soluble”.

In the case of “MISAQSLTRPQLRRQLRKARRVLTRSQQRAAARGLYQQLAQHPLFRRARHVSLYLPMDGEIDPRLLLREAQRRGKATYLPVLNAWPRTRMVFQRVRPGEKFIPNRFRIPEPRINRTKQRPVWALDLVLMPLVGFDDEGGRLGMGGGFYDRSLAYLARRKTWRKPALLGLAHECQKVDRLAQAIWDVPLQGTVSDKQWYLTQRLLEHHHHHH”, the “soluble on expression in E. coli” value was “not soluble”.

As to “MISILRRGLLVLLAAFPLLALAVQTPHEVVQSTTNELLGDLKANKEQYKSNPNAFYDSLNRILGPVVDADGISRSIMTVKYSRKATPEQMQRFQENFKRSLMQFYGNALLEYNNQGITVDPAKADDGKRASVGMKVTGNNGAVYPVQYTLENIGGEWKVRNVIVNGINIGKLFRDQFADAMQRNGNDLDKTIDGWAGEVAKAKQAADNSPEKSVKLEHHHHHH”, the “soluble on expression in E. coli” value is reported as “soluble”.

On to “MISKDEILEIFDKYNKDEITIATLGSHTSLHILKGAKLEGFSTVCITMKGRDVPYKRFKVADKFIYVDNFSDIKNEEIQEKLRELNSIVVPHGSFIAYCGLDNVENSFLVPMFGNRRILRWESERSLEGKLLREAGLRVPKKYESPEDIDGTVIVKFPGARGGRGYFIASSTEEFYKKAEDLKKRGILTDEDIANAHIEEYVVGTNFCIHYFYSPLKDEVELLGMDKRYESNIDGLVRIPAKDQLEMNINPSYVITGNIPVVIRESLLPQVFEMGDKLVAKAKELVPPGMIGPFCLQSLCNENLELVVFEMSARVDGGTNSFMNGGPYSFLYNGEPLSMGQRIAREIKMALQLDMIDKIIS”, for which the “soluble on expression in E. coli” value is “soluble”.

In the case of “MISKRPDIYTQHDKAFSAVSAYVVLNSANERVATVALKFPCDGAGRLYAYVHWVGLEMVRGWAGGYGYDKRSAACASAARRIAIGNLTGDEWTNRRHEATAFVEALEKDSGEDWTRQLEAAGFKVFQAV”, the “soluble on expression in E. coli” value was “not soluble”.

Consider “MISLNNRLTTVSRFLKQGTIADIGSDHAYLPIYAIQNHLCECGIAGEVIQGPFQAAVKNVAANHLVERIDVRLGDGLSVIHPEDVIDNITICGMGGPLIAKILKDGQDKLSQHPRLILQSNIQTENLRQTLQQLNYEIIDEIIMEEKGHIYEIVVA”, for which the “soluble on expression in E. coli” value was “not soluble”.

For “MISLPIDAVVPALRQALGAQHQAVLEAPPGAGKTTRVPLALLDEPWLAGQRILMLEPRRLAARAAAERLAAELGEKVGETVGYRIRLESRVGPKTRIEVVTEGILARRLQDDPALDGVGLVIFDEFHERSLDADLALALTLNGRELLRDEPPLKVLVMSATLEGERLAALLGEAPVVRSEGRMFPVDIRWGRPAQPGEFIEPRVQQAVLQALAEESGSVLVFLPGQAEIRRVHEGLREALGGRPEVLLCPLHGELDLAAQRAAIEPASRGTRKVVLATNIAETSLTIDGVRVVIDAGLARVPRFDPGSGMTRLETQRISRASATQRAGRAGRLEPGVCYRLWSESQHEQLPAYGTAEILQADLAGLALQLARWGVAPEELAWLDAPPAAAYAQARELLGRLGALNASGALSAHGQAMAELPTHPRIAHLLLRGQALGLGELACDVAALLGERDIQRGGGADLHSRLALLAGEARTGASRGAVQRARQLARQFRGYLRGAASEAVVDPGHPRWLGCLLAFAYPDRIARQRRAGGGDYRLANGRAAQFGEPDSLMKQPWLVIADLGSRQGQREERIYLAAELDPRLFDTVLAEQVSQRDELQWDEREGVLRAERQRRVGELVLSSEALPGLDEAARSQALLGLVRRKGLELLPWTPELRQWQARIGLLRRLDLEDKGESEWPDVSDAALLERLEEWLPAYLGKVTRLAHFANLDLASILAGLLPWPLPQRLDEWAPKTLEVPSGSRIRLDYSETPPILAVRLQELFGLGDTPRIAQGRLAVKLHLLSPAHRPVQVTQDLANFWRSTYAEVRKDLKGRYPKHYWPDDPLVAEATARAKPR”, the “soluble on expression in E. coli” value is recorded as “not soluble”.

Turning to “MISLTQQVSAVRLDTHKSDTFEQNDLVLDNTGAVLSGSRDALIRRLVPTRDFCPDESYIFSLLVNIRTFISPHELMQKIVQYCMFAQNADSHNFAKEGRGRMFAHILRLCSEWATNIPYDFKTEYMRTRLNELLRLCAVDKTYQQKTTELQSTLRSSLNKLDRYEKAVANLQKALSENTNLPEQSDSMTGLFVLCNDAKTVAQQLTHIEMERFSMVGVDEIVQSLASDPLSEIGRHSKNKEGTISSISFYIEWFNRLSAFAAIEVLKQTKKRNRVAVFEFMIDIAKECCEIGNFNSMMAIVAGLSLPAVSRLKKTWCRVEKAKLEILQHQLDPSGNFLSYRATIKAAQWRADSARGNQQKIVIPFFVLLLKDLFLIYHGHPRILPNAHLNFMAFNQLAEQLRDVIQWKSTVCTFEKNPQVLQYLLITSVSGEKDSMLMSFECEPPESSSERDQHKKLKGGK”, the “soluble on expression in E. coli” value was “not soluble”.

Turning to “MISNQILQNTIEGLKGISRIDFCVLDTEGKALATTFEDTWNYESAVLSFVESPADSQVIQGCQFFKIFDEQQLEYVLLAGGESEDVYMLGKIAAFQVQSLLVAYKERFDKDNFIKNLLLDNLLLVDIYNRAKKLHIDTEAKRVIFIIETSHEKDSVALDNVRNLLGGKSRDFVTAVDEKNIIVVKELADKAGSRELEKMAKEMMEILRAESEDDKIHIAYGTVVNDIKEVSKSYKEAKLALDVGKIFFDEKDIVAYSTLGIGRLIYQLPIPLCKMFIKEIFEGKSPDEFDEETLTTINKFFENSLNVSETSRQLYIHRNTLVYRLDKLQKSTGLDLRVFEDAITFKIALMVVKYMKYMETLEY”, the “soluble on expression in E. coli” value is listed as “not soluble”.

Take “MISQVRIMDVIKPLGSFIQQDGMPVFGHLSAIPRSLDLESFQYLNEMDNPVSKWRKHFDYKQFQFVSLVTPDYVVGIAIADIRYLASGFCYLFDIKRNALTEQQWLKPCQLGYQTQPSSWLSKAHLANNTIQFSIEEGQWHVQFVTPSVNANITLHPQPQSLPLMLSTPTGYSGWTYTQKHNAMTVTGNLFILGEEQDLSQVAAGYDFSAGYMRRETSWRWASINHKDGDKSLGLNLAAGVNETGFCENVLWVDGERHLLNPVQFQFSRQNPRTDWRITSEDGCVDLVFEPINQRSEKKNFWFLKSNFRQYIGHFSGFVVDGNGSKHELDGVVGLTEDHYAKW”: the “soluble on expression in E. coli” value is “not soluble”.

In the case of “MISVFDIYKIGVGPSSSHTVGPMKAGKEFIDDLRAMGKLRDITKITVDVYGSLSLTGKGHHTDIAIIMGLAGNSPEKVDIDSIPGFIARVEETERLPVGMHCHTVSFPREGGMNFHKTNLELHENGMQIHAWIDDEKVYSKTYYSIGGGFIVDEENFGK”, the “soluble on expression in E. coli” value was “not soluble”.

Regarding “MITCLPLLAGEGARRKGDIGMRNKNKRLAQYATELRRNMTDAEYALWYHLRNKLFCGIRFNRQVIIGHYIVDFCSRKLKLVIELDGIQHVEQEQYDLERTKFLTAQGYKVIRFWNDEVLKNIDNVLEAIYVEIEHLSPPHFGSSPHKWVEPRLEVLK”, the “soluble on expression in E. coli” value is “not soluble”.

For “MITFQEFVNYWFEAYAKIAVKQSTQKRYRELLIPAIKAIGTKPLSDIKPLDIQKIYMNLTGKLSDSTILKLHRLLHEIFKHAVMWEYISDNPVKKVLPPSPELEHHHHHH”, the “soluble on expression in E. coli” value was “soluble”.

As to “MITRIPRSSFSANINNTAQTNEHQTLSELFYKELEDKFSGKELATPLLKSFSENCRQNGRHIFSNKDFVIKFSTSVLQADKKEITIINKNENTTLTQTIAPIFEKYLMEILPQRSDTLDKQELNLKSDRKEKEFPRIKLNGQCYFPGRPQNRIVCRHIAAQYINDIYQNVDYKPHQDDYSSAEKFLTHFNKKCKNQTLALVSSRPEGRCVAACGDFGLVMKAYFDKMESNGISVMAAILLVDNHALTVRLRIKNTTEGCTHYVVSVYDPNVTNDKIRIMSESKENIKHYSLMDFMNVDYSLLKWSNDHVINQSVAIIPALPKEQLLMLKGSVDEITPPLSPATMNLLMAIGQNHQLTQLMIQLQKMPELHRTEMLTAYNSINLPGLYLAINYGNADIVETIFNSLSETGYEGLLSKKNLMHILEAKDKNGFSGLFLAISRKDKNVVTSILNALPKLAATHHLDNEQVYKFLSAKNRTSSHVLYHVMANGDADMLKIVLNALPLLIRTCHLTKEQVLDLLKAKDFYGCPGLYLAMQNGHSDIVKVILEALPSLAQEINISASDIVDLLTAKSLARDTGLFMAMQRGHMNVINTIFNALPTLFNTFKFDKKNMKPLLLANNSNEYPGLFSAIQHKQQNVVETVYLALSDHARLFGFTAEDIMDFWQHKAPQKYSAFELAFEFGHRVIAELILNTLNKMAESFGFTDNPRYIAEKNYMEALLKKASPHTVRAAALEHHHHHH”, the “soluble on expression in E. coli” value is reported as “not soluble”.

For “MITVKNIEGSETYVLRQKILRPNQTLADCKYPSDYETDTFHLGAFINDQLISIASFSKEMHPDLQAGMHYRLRGMATLPEFRNNHAGSSLIQKAEQILQERQANMLWCNGRITVADYYKRLGFQEHGEIFEIEPIGLHKVLYKRI”, the “soluble on expression in E. coli” value is “not soluble”.

As for “MIVLPRRLSDEVADRVRALIDEKNLEAGMKLPAERQLAMQLGVSRNSLREALAKLVSEGVLLSRRGGGTFIRWRHDTWSEQNIVQPLKTLMADDPDYSFDILEARYAIEASTAWHAAMRATPGDKEKIQLCFEATLSEDPDIASQADVRFHLAIAEASHNIVLLQTMRGFFDVLQSSVKHSRQRMYLVPPVFSQLTEQHQAVIDAIFAGDADGARKAMMAHLSFVHTTMKRFDEDQARHARITRLPGEHNEHSREKNA”, the “soluble on expression in E. coli” value is “soluble”.
